Assay results taken from patent US20250346679A1 (INVOX PHARMA, published 2025).

B4: mCD137-mFc-Avi (Fc fusion)
chain: VQNSCDNCQPGTFCRKYNPVCKSCPPSTFSSIGGQPNCNICRVCAGYFRFKKFCSSTHNAECECIEGFHCLGPQCTRCEKDCRPGQELTKQGCKTCSLGTFNDQNGTGVCRPWTNCSLDGRSVLKTGTTEKDVVCGPPVVSFSPSTTISVTPEGGPGGHSLQVL
notes: also called mouse CD137-mFc-Avi; mouse dimeric CD137; not shown: mouse IgG2a Fc domain (mIgG2a Fc)

Key:
[1] = biological target: T1, mouse CD137, cell-surface (mouse, UniProt P20334 24-256); test: cell-based or functional assay
[2] = biological target: mouse CD40 (R&D Systems, biotinylated) (mouse, UniProt P27512 24-193, limits assumed, biotinylated); test: BLI (Octet), biotinylated receptor on streptavidin sensors
Description: (§1) The specificity of the anti-mouse CD137 Fcabs for mouse CD137 was tested in HeID1.3 “mock” mAb² format and measured by BLI in an Octet QKe system by testing for binding of the Fcabs to other mouse TNFRSF receptors (CD40, OX40, GITR). […] Anti-mouse CD137 Fcabs in mock mAb² format were diluted 1:1 in kinetic buffer (PALL 18-1092) to a final concentration of at least 1 μM. Antigen-coated sensors were dipped into the mAb² solutions for 180 seconds followed by 180 seconds in 1×kinetic buffer. Antibodies for each of the TNFRSF receptors were used as positive controls.

[3] = biological target: T2, mouse GITR (R&D Systems, biotinylated) (mouse, UniProt O35714 22-153, limits assumed, biotinylated); test: as above
T2 sequence (looked up): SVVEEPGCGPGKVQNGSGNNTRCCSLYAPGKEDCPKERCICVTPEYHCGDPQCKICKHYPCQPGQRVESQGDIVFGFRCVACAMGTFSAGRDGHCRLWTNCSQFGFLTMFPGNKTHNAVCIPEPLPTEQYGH
Description: as §1

[4] = biological target: T1, mouse CD137, cell-surface; test: cell-based or functional assay; remark: listed apart in the source
[5] = biological target: B4; test: SPR (Biacore T200)
[6] = biological target: B4; test: SPR, mAb^2 captured by anti-human Fab, antigen in flow, 1:1 Langmuir fit
Description: (§2) An anti-human Fab capture antibody was immobilised on all four flow cells of a CM5 series S chip (GE Healthcare #BR-1005-30) to an average surface density of 6000 RU following the manufacturer's recommendations (GE Healthcare, human Fab capture Kit, #28958325). […] Each mAb² was captured to approximately 150 RU by injecting a 3 μg/ml solution of mAb² diluted in HBS-EP+ buffer (GE Healthcare #BR1006-69) for 60 seconds at 30 μl/min. Then different concentrations of human, cyno or mouse CD137 antigen (unbiotinylated human, cyno or mouse CD137-mFc-Avi or human CD137-Avi-His) in HBS-EP+ buffer were flowed over the chip for 3 min at 60 μl/min and then allowed to dissociate for 10 minutes. After each antigen concentration the chip was regenerated by infecting 10 mM glycine pH 2.1 at a flow rate of 30 μl/min for 30 seconds. Buffer HBS-EP+ was injected before the highest concentration of antigen and after the lowest concentration of antigen for reference subtraction, and one of the concentrations at random was repeated twice. The binding kinetics were fit with a 1:1 Langmuir model to generate equilibrium binding constants (KD) for each sample. Data analysis was performed with BiaEvaluation software version 3.2.

[7] = biological target: T3, hCD137-Avi-His (human, UniProt Q07011 24-186); test: as above
T3 construct: also called human CD137-Avi-His; monomeric human CD137
Description: as §2

[8] = biological target: T4, cCD137-mFc-Avi (cynomolgus; mouse); test: as above
T4 construct: also called cynomolgus CD137-mFc-Avi; Cyno CD137-mFc-Avi; not shown: mouse IgG2a Fc domain (mIgG2a Fc)
T4 chain: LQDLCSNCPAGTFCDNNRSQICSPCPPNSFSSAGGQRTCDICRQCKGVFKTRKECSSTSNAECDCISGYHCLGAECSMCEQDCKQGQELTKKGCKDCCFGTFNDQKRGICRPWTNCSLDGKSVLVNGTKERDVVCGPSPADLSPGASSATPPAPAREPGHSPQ
Description: as §2

[9] = biological target: T5, hCD137-mFc-Avi (human; mouse, UniProt Q07011 24-186, biotin on the Avi sequence where the biotinylated form was used); test: as above
T5 construct: also called human CD137-mFc-Avi; dimeric human CD137; not shown: mouse IgG2a Fc domain (mIgG2a Fc)
Description: as §2

[10] = biological target: T6, human OX40 (human, UniProt P43489 29-216); test: SPR, receptor amine-coupled to CM5 (~1000 RU)
T6 sequence (looked up): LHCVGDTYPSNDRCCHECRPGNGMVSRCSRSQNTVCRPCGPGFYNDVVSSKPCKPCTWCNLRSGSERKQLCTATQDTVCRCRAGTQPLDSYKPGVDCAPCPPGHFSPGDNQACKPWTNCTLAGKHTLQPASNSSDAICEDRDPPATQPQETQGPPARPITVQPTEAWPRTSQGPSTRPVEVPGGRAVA
Description: (§3) The specificity of the anti-human CD137 Fcabs for human CD137 compared to other related TNFSFR family members was tested. 8 of the Fcabs were tested in mock mAb² (HeID1.3) format and measured by SPR in a Biacore T200 (GE Healthcare) by testing for binding to other human TNFRSF receptors: CD40, OX40 and GITR. Amine coupling (amine coupling kit, GE Healthcare, BR-1000-50) was used to coat human CD40, GITR and OX40 to approximately 1000 RU in Biacore CM5 chips (GE Healthcare, cat no 29149603). […] The chip was regenerated by injection of 10 mM glycine pH 2.5 for 12 s at 30 μl/min. Antibodies specific to the different TNFRSF members were used as positive controls to verify Biacore chip coating. Data was double reference subtracted and analysed using BIAevaluation 3.2 software.

[11] = biological target: T7, human GITR (human, UniProt Q9Y5U5 26-161, limits assumed); test: SPR, receptor amine-coupled to CM5 (~1000 RU)
T7 sequence (looked up): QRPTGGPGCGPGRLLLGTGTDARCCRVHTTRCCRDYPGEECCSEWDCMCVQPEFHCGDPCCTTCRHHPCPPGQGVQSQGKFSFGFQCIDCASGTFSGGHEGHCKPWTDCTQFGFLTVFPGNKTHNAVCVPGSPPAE
Description: as §3

[12] = biological target: human CD40 (human, UniProt P25942 21-193, limits assumed); test: SPR, receptor amine-coupled to CM5 (~1000 RU)
Description: as §3

[13] = biological target: T8, mouse CD137 ligand on DO11.10 cells (mouse, UniProt P41274 1-309); test: flow cytometry, anti mouse Fc detection
T8 construct: whole, on cells
T8 sequence (looked up): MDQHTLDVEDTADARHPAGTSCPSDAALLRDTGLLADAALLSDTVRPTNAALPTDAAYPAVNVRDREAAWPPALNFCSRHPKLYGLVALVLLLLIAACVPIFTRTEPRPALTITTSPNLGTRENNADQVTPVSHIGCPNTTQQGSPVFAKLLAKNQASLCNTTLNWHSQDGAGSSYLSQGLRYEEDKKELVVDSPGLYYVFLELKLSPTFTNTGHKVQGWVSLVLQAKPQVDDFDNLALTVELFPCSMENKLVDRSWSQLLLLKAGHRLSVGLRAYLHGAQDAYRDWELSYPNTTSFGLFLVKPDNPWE
Description: In more detail, materials from the same production lot were mixed together and analysed for stability and purity by size-exclusion high-performance liquid chromatography (SE-HPLC), SDS polyacrylamide gel electrophoresis (SDS-PAGE), and size-exclusion chromatography with multi-angle light scattering (SEC-MALS). […] Cells were incubated with the CD137 antigens for 1 hour, and then a fluorescently-labelled anti mouse Fc fragment antibody was used to detect cell binding.

Sequence of mouse CD40 (R&D Systems, biotinylated) (P27512 24-193 limits assumed): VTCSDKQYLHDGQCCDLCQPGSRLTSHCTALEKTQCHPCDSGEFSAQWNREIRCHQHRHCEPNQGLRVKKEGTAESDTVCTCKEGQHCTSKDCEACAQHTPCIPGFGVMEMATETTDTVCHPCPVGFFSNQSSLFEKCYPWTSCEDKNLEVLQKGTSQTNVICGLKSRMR
Sequence of human CD40 (P25942 21-193 limits assumed): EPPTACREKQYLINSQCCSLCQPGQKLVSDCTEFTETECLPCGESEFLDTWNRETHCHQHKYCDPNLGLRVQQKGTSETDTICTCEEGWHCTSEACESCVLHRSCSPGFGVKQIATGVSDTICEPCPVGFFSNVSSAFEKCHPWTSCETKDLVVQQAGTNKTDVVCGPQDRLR
T5 sequence (Q07011 24-186): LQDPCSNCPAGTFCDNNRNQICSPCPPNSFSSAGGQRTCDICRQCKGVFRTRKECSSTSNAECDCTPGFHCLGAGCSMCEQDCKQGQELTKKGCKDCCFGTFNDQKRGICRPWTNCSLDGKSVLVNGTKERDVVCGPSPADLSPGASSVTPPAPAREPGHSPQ
T3 sequence (Q07011 24-186): as above

B1: FS22m-063 in HeID1.3 mock mAb^2 format (bispecific antibody)
heavy: QVQLQESGPGLVRPSQTLSLTCTVSGSTFSGYGVNWVRQPPGRGLEWIGMIWGDGNTDYNSALKSRVTMLVDTSKNQFSLRLSSVTAADTAVYYCARERDYRLDYWGQGSLVTVSSASTKGPSVFPLAPSSKSTSGGTAALGCLVKDYFPEPVTVSWNSGALTSGVHTFPAVLQSSGLYSLSSVVTVPSSSLGTQTYICNVNHKPSNTKVDKKVEPKSCDKTHTCPPCPAPELLGGPSVFLFPPKPKDTLMISRTPEVTCVVVDVSHEDPEVKFNWYVDGVEVHNAKTKPREEQYNSTYRVVSVLTVLHQDWLNGKEYKCKVSNKALPAPIEKTISKAKGQPREPQVYTLPPSRDEPYWSYVSLTCLVKGFYPSDIAVEWESNGQPENNYKTTPPVLDSDGSFFLYSKLTVMNYRWELGNVFSCSVMHEALHNHYTQKSLSLSPG
light: DIQMTQSPASLSASVGETVTITCRASGNIHNYLAWYQQKQGKSPQLLVYNAKTLADGVPSRFSGSGSGTQYSLKINSLQPEDFGSYYCQHFWSTPRTFGGGTKLEIKRTVAAPSVFIFPPSDEQLKSGTASVVCLLNNFYPREAKVQWKVDNALQSGNSQESVTEQDSKDSTYSLSSTLTLSKADYEKHKVYACEVTHQGLSSPVTKSFNRGEC
notes: anti-mouse CD137 Fcab
Which “EC50 upon Protein L crosslinking, NF-κB luciferase assay (HEK.FRT.luc.mCD137)” value [1] does the source give for B1 here?
Its value is 1.44 nM.

What about the “fold-change in activity upon crosslinking, NF-κB luciferase assay (HEK.FRT.luc.mCD137)” value [1] of the same binder?
The value was 27 fold.

Does B1 bind [2]?
Result: no binding (tested: at least 1 µM)

Does B1 bind [3]?
Result: no binding (tested: at least 1 µM)

And the “+XL EC50 (nM), mouse CD137 DO11.10 T cell activation assay” value (“+XL EC50 (nM)” below) [4]?
Its value is 0.39 nM.

What about the “+XL Emax (IL-2 pg/ml), mouse CD137 DO11.10 T cell activation assay” value (shortened to “+XL Emax (IL-2 pg/ml)”) [4] of the same binder?
Its value is 24200 pg/mL.

B2: FS22-053-017 in HeID1.3 mock mAb^2 format (bispecific antibody)
heavy: QVQLQESGPGLVRPSQTLSLTCTVSGSTFSGYGVNWVRQPPGRGLEWIGMIWGDGNTDYNSALKSRVTMLVDTSKNQFSLRLSSVTAADTAVYYCARERDYRLDYWGQGSLVTVSSASTKGPSVFPLAPSSKSTSGGTAALGCLVKDYFPEPVTVSWNSGALTSGVHTFPAVLQSSGLYSLSSVVTVPSSSLGTQTYICNVNHKPSNTKVDKKVEPKSCDKTHTCPPCPAPELLGGPSVFLFPPKPKDTLMISRTPEVTCVVVDVSHEDPEVKFNWYVDGVEVHNAKTKPREEQYNSTYRVVSVLTVLHQDWLNGKEYKCKVSNKALPAPIEKTISKAKGQPREPQVYTLPPSRDELNPPYLFSNQVSLTCLVKGFYPSDIAVEWESNGQPENNYKTTPPVLDSDGSFFLYSKLTVYHWRWLEGNVFSCSVMHEALHNHYTQKSLSLSPG
light: DIQMTQSPASLSASVGETVTITCRASGNIHNYLAWYQQKQGKSPQLLVYNAKTLADGVPSRFSGSGSGTQYSLKINSLQPEDFGSYYCQHFWSTPRTFGGGTKLEIKRTVAAPSVFIFPPSDEQLKSGTASVVCLLNNFYPREAKVQWKVDNALQSGNSQESVTEQDSKDSTYSLSSTLTLSKADYEKHKVYACEVTHQGLSSPVTKSFNRGEC
notes: FS22-053-014 with D98E (IMGT, CH3); range 1-339 derived by counting; also called FS22-053-17
B2 was tested. Which “fold decrease in binding strength against FS22-053-014” value [5] did it give?
Its value is 2 fold.

What about the “+XL EC50 (nM)” value [4] of the same binder?
Its value is 16.7 nM.

What about the “+XL Emax (IL-2 pg/ml)” value [4] of the same binder?
Its value is 41000 pg/mL.

B3: FS22-053-014/HeID1.3 (bispecific antibody, human IgG1, kappa)
heavy: QVQLQESGPGLVRPSQTLSLTCTVSGSTFSGYGVNWVRQPPGRGLEWIGMIWGDGNTDYNSALKSRVTMLVDTSKNQFSLRLSSVTAADTAVYYCARERDYRLDYWGQGSLVTVSSASTKGPSVFPLAPSSKSTSGGTAALGCLVKDYFPEPVTVSWNSGALTSGVHTFPAVLQSSGLYSLSSVVTVPSSSLGTQTYICNVNHKPSNTKVDKKVEPKSCDKTHTCPPCPAPELLGGPSVFLFPPKPKDTLMISRTPEVTCVVVDVSHEDPEVKFNWYVDGVEVHNAKTKPREEQYNSTYRVVSVLTVLHQDWLNGKEYKCKVSNKALPAPIEKTISKAKGQPREPQVYTLPPSRDELNPPYLFSNQVSLTCLVKGFYPSDIAVEWESNGQPENNYKTTPPVLDSDGSFFLYSKLTVYHWRWLDGNVFSCSVMHEALHNHYTQKSLSLSPG
light: DIQMTQSPASLSASVGETVTITCRASGNIHNYLAWYQQKQGKSPQLLVYNAKTLADGVPSRFSGSGSGTQYSLKINSLQPEDFGSYYCQHFWSTPRTFGGGTKLEIKRTVAAPSVFIFPPSDEQLKSGTASVVCLLNNFYPREAKVQWKVDNALQSGNSQESVTEQDSKDSTYSLSSTLTLSKADYEKHKVYACEVTHQGLSSPVTKSFNRGEC
notes: mock mAb^2; also called FS22-053-014 (mock mAb^2 format); FS22-053-14
B3 was tested. Which Kd [6] did it give?
The Kd was 24 nM.

What about the “Human monomeric CD137 KD fold difference relative to human dimeric KD” value [7] of the same binder?
The value was 100 fold.

And the Kd [8]?
Its Kd is 0.9 nM.

What about the Kd [9] of the same binder?
The Kd was 3.2 nM.

Does B3 bind [10]?
Result: no binding (tested: 1 µM)

Does B3 bind [11]?
Result: no binding (tested: 1 µM)

Does B3 bind [12]?
Result: no binding (tested: 1 µM)

What about the “+XL EC50 (nM)” value [4] of the same binder?
The value was 2.04 nM.

What about the “+XL Emax (IL-2 pg/ml)” value [4] of the same binder?
Its value is 28100 pg/mL.

Does B4 bind [13]?
Result: binds
